To fix the notation:
B1: Calcyon:GAL4 AD fusion protein (encoded by pACTCalcyon) (other, not shown: large carriers)
chain: MVKLGCSFSGKPGKDPGDQDGAAMDSVPLISPLDISQLQPPLPDQVVIKTQTEYQLSSPDQQNFPDLEGQRLNCSHPEEGRRLPTARMIAFAMALLGCVLIMYKAIWYDQFTCPDGFLLRHKICTPLTLEMYYTEMDPERHRSILAAIGAYPLSRKHGTETPAAWGDGYRAAKEERKGPTQAGAAAAATEPPGKPSAKAEKEAARKAAGSAAPPPAQ
notes: Library clone from a human brain cDNA:GAL4 AD library; The 936 bp insert holds the whole 217 residue ORF; also called pACTP24; clone K37

Assay [1] has as its target T1, D1/GAL4 BD fusion protein (hD1 receptor residues 365-446 fused to the GAL4 DNA binding domain, pGBTD1) (yeast; human, UniProt P04386 1-147; P21728 365-446).
T1 construct: D1 segment is at the 3' end of the GAL4 BD open reading frame; also called pGBTD1365-446; D1:GAL4 fusion protein
Put plainly: yeast two-hybrid.

In assay [2] the target is B1. Briefly: yeast two-hybrid.
Assay [3] deals with T1, D1/GAL4 BD fusion protein (hD1 receptor …). Briefly: yeast two-hybrid, X-Gal colony filter assay.
Excerpt: A nitrocellulose filter was placed on the plate to transfer the colonies to the filter. Cells were permeabilized by freezing in liquid nitrogen, and then soaked in buffer containing X-Gal.

Consider B1, for which, in assay [1], the binding result was “binds”.

B2: D1 receptor:GAL4 binding domain fusion protein pGBTD1421-435 (other, yeast;human, UniProt P04386 1-147, looked up)
chain: MKLLSSIEQACDICRLKKLKCSKEKPKCAKCLKNNWECRYSPKTKRSPLTRAHLTEVESRLERLEQLFLLIFPREDLDMILKMDSLQDIKALLTGLFVQDNVNKDAVTDRLASVETDMPLTLRQHRISATSSSEESSNKGQRQLTVSSVILDYDTDVSLEKI
Turning to B2, the binding result in assay [2] is “binds”.

B3: GAL4 Activation Domain (AD) protein encoded on the vector pGAD424 (other, yeast, UniProt P04386 768-881, looked up)
chain: ANFNQSGNIADSSLSFTFTNSSNGPNLITTQTNSQALSQPIASSNVHDNFMNNEITASKIDDGNNSKPLSPGWTDQTAYNAFGITTGMFNTTTMDDVYNYLFDDEDTPPNPKKE
For B3, the binding result in assay [3] is given as “no binding”.
